Laboratory results reported in the supplement of paper PMC11246515.
± gives the standard deviation of the averaged measurements.

Assay: total protein half-life in vivo (active degradation + dilution); higher = more stable protein
[1] = E. coli NCM3722 delta-clpP delta-lon delta-hslV, growth: N-lim chemostat, doubling time 6 h
[2] = E. coli NCM3722 delta-clpP, growth: N-lim chemostat, doubling time 6 h
[3] = E. coli NCM3722 delta-hslV, growth: N-lim chemostat, doubling time 6 h
[4] = E. coli NCM3722 delta-lon, growth: N-lim chemostat, doubling time 6 h
[5] = E. coli NCM3722 delta-smpB, growth: N-lim chemostat, doubling time 6 h
[6] = wild type E. coli NCM3722, growth: C-lim chemostat, doubling time 3 h
[7] = wild type E. coli NCM3722, growth: C-lim chemostat, doubling time 6 h
[8] = wild type E. coli NCM3722, growth: C-lim chemostat, doubling time 12 h
[9] = wild type E. coli NCM3722, growth: N-lim chemostat, doubling time 6 h
[10] = wild type E. coli NCM3722, growth: N-lim chemostat, doubling time 12 h
[11] = wild type E. coli NCM3722, growth: P-lim chemostat, doubling time 6 h
[12] = wild type E. coli NCM3722, growth: P-lim chemostat, doubling time 12 h

Sequence | total protein half-life in vivo [1] [h] | total protein half-life in vivo [2] [h] | total protein half-life in vivo [3] [h] | total protein half-life in vivo [4] [h] | total protein half-life in vivo [5] [h] | total protein half-life in vivo [6] [h] | total protein half-life in vivo [7] [h] | total protein half-life in vivo [8] [h] | total protein half-life in vivo [9] [h] | total protein half-life in vivo [10] [h] | total protein half-life in vivo [11] [h] | total protein half-life in vivo [12] [h]
MTIKNKMLLGALLLVTSAAWAAPATAGSTNTSGISKYELSSFIADFKHFKPGDTVPEMYRTDEYNIKQWQLRNLPAPDAGTHWTYMGGAYVLISDTDGKIIKAYDGEIFYHR | 5.04 ± 0.4 | 5.973 ± 0.043 | 6.26 ± 0.2 | 5.84 ± 0.39 | 6.59 ± 0.59 | 3.09 ± 0.24 | 5.37 ± 0.16 | 8.3 ± 1.4 | 6.03 ± 0.036 | 11.5 ± 0.32 | 5.446 ± 0.049 | 13.4 ± 2.4
MTIKNVICDIDGVLMHDNVAVPGAAEFLHGIMDKGLPLVLLTNYPSQTGQDLANRFATAGVDVPDSVFYTSAMATADFLRRQEGKKAYVVGEGALIHELYKAGFTITDVNPDFVIVGETRSYNWDMMHKAAYFVANGARFIATNPDTHGRGFYPACGALCAGIEKISGRKPFYVGKPSPWIIRAALNKMQAHSEETVIVGDNLRTDILAGFQAGLETILVLSGVSSLDDIDSMPFRPSWIYPSVAEIDVI [P0AF24] | 6.46 ± 0.48 | 5.48 ± 0.16 | 5.64 ± 0.15 | 5.88 ± 0.64 | 5.58 ± 0.17 | 3.14 ± 0.041 | 5.71 ± 0.07 | 11.6 ± 1.2 | 5.465 ± 0.045 | 9.89 ± 0.17 | 6 ± 0.44 | 10.4 ± 2.1
MTILNHTLGFPRVGLRRELKKAQESYWAGNSTREELLAVGRELRARHWDQQKQAGIDLLPVGDFAWYDHVLTTSLLLGNVPARHQNKDGSVDIDTLFRIGRGRAPTGEPAAAAEMTKWFNTNYHYMVPEFVKGQQFKLTWTQLLDEVDEALALGHKVKPVLLGPVTWLWLGKVKGEQFDRLSLLNDILPVYQQVLAELAKRGIEWVQIDEPALVLELPQAWLDAYKPAYDALQGQVKLLLTTYFEGVTPNLDTITALPVQGLHVDLVHGKDDVAELHKRLPSDWLLSAGLINGRNVWRADLTEKYAQIKDIVGKRDLWVASSCSLLHSPIDLSVETRLDAEVKSWFAFALQKCHELALLRDALNSGDTAALAEWSAPIQARRHSTRVHNPAVEKRLAAITAQDSQRANVYEVRAEAQRARFKLPAWPTTTIGSFPQTTEIRTLRLDFKKGNLDANNYRTGIAEHIKQAIVEQERLGLDVLVHGEAERNDMVEYFGEHLDGFVFTQNGWVQSYGSRCVKPPIVIGDISRPAPITVEWAKYAQSLTDKPVKGMLTGPVTILCWSFPREDVSRETIAKQIALALRDEVADLEAAGIGIIQIDEPALREGLPLRRSDWDAYLQWGVEAFRINAAVAKDDTQIHTHMCYCEFNDIMDSIAALDADVITIETSRSDMELLESFEEFDYPNEIGPGVYDIHSPNVPSVEWIEALLKKAAKRIPAERLWVNPDCGLKTRGWPETRAALANMVQAAQNLRRG | 3.21 ± 0.81 | 2.4 ± 0.23 | 2.34 ± 0.34 | 2.938 ± 0.012 | 2.6 ± 0.53 | 2.48 ± 0.19 | 4.22 ± 0.071 | 6.91 ± 0.33 | 2.56 ± 0.063 | 3.593 ± 0.023 | 4.14 ± 0.21 | 6.88 ± 1.1
MTITDLVLILFIAALLAFAIYDQFIMPRRNGPTLLAIPLLRRGRIDSVIFVGLIVILIYNNVTNHGALITTWLLSALALMGFYIFWIRVPKIIFKQKGFFFANVWIEYSRIKAMNLSEDGVLVMQLEQRRLLIRVRNIDDLEKIYKLLVSTQ | 7.14 | 7.25 | 6.58 |  | 6.13 ± 0.82 | 2.77 ± 0.15 | 4.79 |  | 5.6 | 8.94 |  | 
MTIYTLSHGSLKLDVSDQGGVIEGFWRDTTPLLRPGKKSGVATDASCFPLVPFANRVSGNRFVWQGREYQLQPNVEWDAHYLHGDGWLGEWQCVSHSDDSLCLVYEHRSGVYHYRVSQAFHLTADTLTVTLSVTNQGAETLPFGTGWHPYFPLSPQTRIQAQASGYWLEREQWLAGEFCEQLPQELDFNQPAPLPRQWVNNGFAGWNGQARIEQPQEGYAIIMETTPPAPCYFIFVSDPAFDKGYAFDFFCLEPMSHAPDDHHRPEGGDLIALAPGESTTSEMSLRVEWL | 6.63 |  |  |  |  | 0.925 |  | 10.7 |  |  | 6.42 | 11.3 ± 0.92
MTKHARFFLLPSFILISAALIAGCNDKGEEKAHVGEPQVTVHIVKTAPLEVKTELPGRTNAYRIAEVRPQVSGIVLNRNFTEGSDVQAGQSLYQIDPATYQANYDSAKGELAKSEAAAAIAHLTVKRYVPLVGTKYISQQEYDQAIADARQADAAVIAAKATVESARINLAYTKVTAPISGRIGKSTVTEGALVTNGQTTELATVQQLDPIYVDVTQSSNDFMRLKQSVEQGNLHKENATSNVELVMENGQTYPLKGTLQFSDVTVDESTGSITLRAVFPNPQHTLLPGMFVRARIDEGVQPDAILIPQQGVSRTPRGDATVLIVNDKSQVEARPVVASQAIGDKWLISEGLKSGDQVIVSGLQKARPGEQVKATTDTPADTASK |  |  |  |  |  |  |  | 13.2 |  |  |  | 
MTKIIAVTACPSGVAHTYMAAEALESAAKAKGWEVKVETQGSIGLENELTAEDVASADMVILTKDIGIKFEERFAGKTIVRVNISDAVKRADAIMSKIEAHLAQTA | 4.85 ± 0.3 | 5.65 |  |  |  |  |  | 8.01 ± 8.9 |  |  |  | 
MTKLKLLALGVLIATSAGVAHAEGKFSLGAGVGVVEHPYKDYDTDVYPVPVINYEGDNFWFRGLGGGYYLWNDATDKLSITAYWSPLYFKAKDSGDHQMRHLDDRKSTMMAGLSYAHFTQYGYLRTTLAGDTLDNSNGIVWDMAWLYRYTNGGLTVTPGIGVQWNSENQNEYYYGVSRKESARSGLRGYNPNDSWSPYLELSASYNFLGDWSVYGTARYTRLSDEVTDSPMVDKSWTGLISTGITYKF [P0A908] | 6.14 ± 1.1 | 7.17 ± 0.13 | 6.01 ± 1.1 | 6.05 ± 1 | 5.96 ± 0.079 | 2.55 ± 0.14 | 5.81 ± 0.46 | 13.6 ± 2.3 | 6.35 ± 0.63 | 14 ± 1.4 | 5.7 ± 0.23 | 
MTKPYVRLDKNDAAVLLVDHQAGLLSLVRDIEPDKFKNNVLALGDLAKYFNLPTILTTSFETGPNGPLVPELKAQFPDTPYIARPGNINAWDNEDFVKAVKATGKKQLIIAGVVTEVCVAFPALSAIEEGFDVFVVTDASGTFNEITRHSAWDRLSQAGAQLMTWFGVACELHRDWRNDIEGLATLFSNHIPDYRNLMTSYDTLTKQK | 6.75 ± 1.6 | 5.73 ± 0.18 | 5.4 ± 0.7 | 5.666 ± 0.053 | 4.69 ± 0.19 | 3.0124 ± 0.0024 |  | 10.3 ± 1.9 | 5.17 ± 0.61 | 9.22 ± 0.33 | 5.84 ± 0.94 | 12.9 ± 1.1
